Reference: patent publication US20040005320A1 (ZymoGenetics, published 2004)

Assays:
[1] = target: T1, IL-20RA/IL-20RB heterodimeric receptor (human, UniProt Q9UHF4 30-553; Q6UXL0 30-311); assay: 125I-labeled IL-20 binding on BHK cells expressing IL-20RA and IL-20RB
T1 construct: Both subunits were co-expressed on transfected COS, BHK or BaF3 cells, or were endogenous on human HaCaT keratinocytes; also called IL-20RB/IL-20RA heterodimer; IL-20 receptor
T1 sequence 1: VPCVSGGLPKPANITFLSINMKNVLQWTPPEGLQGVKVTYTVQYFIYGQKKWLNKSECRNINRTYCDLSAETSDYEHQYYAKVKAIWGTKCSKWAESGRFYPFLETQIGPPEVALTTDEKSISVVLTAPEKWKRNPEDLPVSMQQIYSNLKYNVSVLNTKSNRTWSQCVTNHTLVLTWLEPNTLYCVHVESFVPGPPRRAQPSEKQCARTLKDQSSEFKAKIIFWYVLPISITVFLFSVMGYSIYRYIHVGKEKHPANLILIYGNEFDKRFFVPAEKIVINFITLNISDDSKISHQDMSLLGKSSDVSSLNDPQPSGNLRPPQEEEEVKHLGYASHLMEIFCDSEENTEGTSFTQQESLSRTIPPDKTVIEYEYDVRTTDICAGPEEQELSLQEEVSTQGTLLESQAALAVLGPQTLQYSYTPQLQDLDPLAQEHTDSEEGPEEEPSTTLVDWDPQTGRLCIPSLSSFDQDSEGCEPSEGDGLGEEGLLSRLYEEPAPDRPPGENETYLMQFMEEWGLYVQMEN
T1 sequence 2: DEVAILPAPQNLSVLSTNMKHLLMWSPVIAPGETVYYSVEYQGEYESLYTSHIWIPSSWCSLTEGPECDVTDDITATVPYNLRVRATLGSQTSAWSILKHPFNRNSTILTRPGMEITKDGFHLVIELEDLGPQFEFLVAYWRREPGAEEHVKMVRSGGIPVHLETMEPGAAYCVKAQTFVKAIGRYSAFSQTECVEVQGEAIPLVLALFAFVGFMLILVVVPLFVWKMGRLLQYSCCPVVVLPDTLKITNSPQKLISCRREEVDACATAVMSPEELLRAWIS
Procedure: (§1) The specificity and affinity of IL-20 for its receptor was determined using BHK cells stably transfected with IL-20RA, IL-20RB or both receptor subunits. […] Binding of ¹²⁵I-labeled IL-20 was eliminated in the presence of 100-fold excess of unlabeled IL-20 but not with 100-fold excess of the unrelated cytokine, IL-21.

[2] = target: T2, IL-20RB (human, UniProt Q6UXL0 30-311); assay: radiolabeled ligand binding on stably transfected BHK cells
T2 construct: Expressed alone on stably transfected BHK cells; also called IL-20RB subunit alone
T2 sequence: T1 sequence 2
Procedure: as §1

[3] = target: T3, IL-20RA (human, UniProt Q9UHF4 30-553); assay: as above
T3 construct: Expressed alone on stably transfected BHK cells; also called Zcytor7; IL-20RA subunit alone
T3 sequence: T1 sequence 1
Procedure: as §1

Kd [1]: ~1.5 nM
binding result [2]: no binding
binding result [3]: no binding
B1: IL-20 (ligand, UniProt Q9NYY1 25-176, looked up)
chain: LKTLNLGSCVIATNLQEIRNGFSEIRGSVQAKDGNIDIRILRRTESLQDTKPANRCCLLRHLLRLYLDRVFKNYQTPDHYTLRKISSLANSFLTIKKDLRLCHAHMTCHCGEEAMKKYSQILSHFEKLEPQAAVVKALGELDILLQWMEETE
notes: also called biotin-labeled IL-20 protein; biotinylated IL-20
